According to US20030199071A1 (published 2003):

Target: FimH Q133A (E. coli, UniProt P08191 22-300)
Test: co-expression with FimC in E. coli; data not shown

B1: FimC (wild type periplasmic chaperone of E. coli type 1 pili) (other)
chain: GVALGATRVIYPAGQKQVQLAVTNNDENSTYLIQSWVENADGVKDGRFIVTPPLFAMKGKKENTLRILDATNNQLPQDRESLFWMNVKAIPSMDKSKLTENTLQLAIISRIKLYYRPAKLALPPDQAAEKLRFRRSANSLTLINPTPYYLTVTELNAGTRVLENALVPPMGESTVKLPSDAGSNITYRTINDYGALTPKMTGVME
notes: also called FimC alone; wild type FimC
B1: binds.
